From PMC5366329

How the values were obtained:
[1] = molecular target: N-terminal 6xHis-tagged HsCPAP^897−1338 (human) (UniProt Q9HC77); assay: SEC + other: negative-stain electron microscopy (single particle, 3D map); SEC (Superdex 200 10/300) fraction at an apparent MW of ~108 kDa, buffer H-300 (300 mM NaCl), 4°C; toroidal particles, 20 Å map from 4,587 particles; monomers to putative dimer
[2] = molecular target: N-terminal 6xHis-tagged HsCPAP^897−1338 (human) (UniProt Q9HC77); assay: SEC + other: negative-stain electron microscopy (single particle, 3D map); SEC (Superdex 200 10/300) peak fraction at an apparent MW of ~208 kDa, buffer H-300 (300 mM NaCl), 4°C; barrel-like particles, 23 Å map; putative tetramer (dimer of dimers)

stoichiometry N [1]: 2 | stoichiometry N [2]: 4
Substance: N-terminal 6xHis-tagged HsCPAP^897−1338 (from UniProt Q9HC77 897-1338) (domain or fragment)
